T1: 9S-E2 (synthetic construct)
T1 chain: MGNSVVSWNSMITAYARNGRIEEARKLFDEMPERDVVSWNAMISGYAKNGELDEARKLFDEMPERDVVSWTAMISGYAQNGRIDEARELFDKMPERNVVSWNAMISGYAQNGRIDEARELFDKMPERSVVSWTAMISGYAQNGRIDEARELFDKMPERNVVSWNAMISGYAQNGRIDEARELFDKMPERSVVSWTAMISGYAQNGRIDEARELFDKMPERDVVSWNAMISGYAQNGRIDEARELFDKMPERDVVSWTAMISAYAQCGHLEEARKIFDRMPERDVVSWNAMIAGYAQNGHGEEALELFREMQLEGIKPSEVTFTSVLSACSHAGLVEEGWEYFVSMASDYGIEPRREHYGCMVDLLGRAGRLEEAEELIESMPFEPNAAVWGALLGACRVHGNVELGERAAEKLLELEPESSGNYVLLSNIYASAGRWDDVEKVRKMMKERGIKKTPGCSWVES

T2: 9P-S2 (synthetic construct)
T2 chain: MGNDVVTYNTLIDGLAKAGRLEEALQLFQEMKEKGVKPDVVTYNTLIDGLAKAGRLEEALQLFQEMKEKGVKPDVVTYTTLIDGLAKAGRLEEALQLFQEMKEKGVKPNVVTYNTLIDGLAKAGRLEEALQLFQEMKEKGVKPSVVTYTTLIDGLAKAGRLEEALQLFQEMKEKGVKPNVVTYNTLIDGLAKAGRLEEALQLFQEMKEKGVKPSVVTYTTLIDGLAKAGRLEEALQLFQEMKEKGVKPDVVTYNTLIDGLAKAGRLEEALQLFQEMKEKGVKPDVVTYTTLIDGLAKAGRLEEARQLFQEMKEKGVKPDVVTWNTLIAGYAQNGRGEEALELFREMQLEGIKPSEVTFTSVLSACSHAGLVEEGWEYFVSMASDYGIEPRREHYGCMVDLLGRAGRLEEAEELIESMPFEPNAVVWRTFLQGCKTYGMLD

T3: 9S (synthetic construct)
T3 chain: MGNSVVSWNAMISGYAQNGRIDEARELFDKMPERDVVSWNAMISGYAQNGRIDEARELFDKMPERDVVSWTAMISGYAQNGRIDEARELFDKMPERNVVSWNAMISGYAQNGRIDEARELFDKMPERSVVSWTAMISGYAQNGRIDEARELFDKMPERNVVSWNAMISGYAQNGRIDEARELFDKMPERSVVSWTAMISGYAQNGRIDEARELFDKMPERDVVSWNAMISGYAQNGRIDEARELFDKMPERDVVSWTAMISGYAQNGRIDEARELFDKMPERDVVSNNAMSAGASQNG

T4: 9S-S2 PPR (synthetic construct)
T4 chain: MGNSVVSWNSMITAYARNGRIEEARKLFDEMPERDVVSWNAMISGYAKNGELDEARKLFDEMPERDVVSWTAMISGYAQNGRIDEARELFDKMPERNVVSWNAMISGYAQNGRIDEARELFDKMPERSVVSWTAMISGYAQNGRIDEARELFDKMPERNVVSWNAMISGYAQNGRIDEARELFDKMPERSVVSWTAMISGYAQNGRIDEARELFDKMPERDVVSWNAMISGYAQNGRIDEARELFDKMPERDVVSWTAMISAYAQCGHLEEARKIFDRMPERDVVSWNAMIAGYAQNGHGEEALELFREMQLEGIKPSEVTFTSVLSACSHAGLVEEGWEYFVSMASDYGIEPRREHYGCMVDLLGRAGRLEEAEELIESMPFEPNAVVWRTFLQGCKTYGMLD

T5: GFP-9S library array, motif 4 ND N98M;D124C (synthetic construct, N98M;D124C)
T5 chain: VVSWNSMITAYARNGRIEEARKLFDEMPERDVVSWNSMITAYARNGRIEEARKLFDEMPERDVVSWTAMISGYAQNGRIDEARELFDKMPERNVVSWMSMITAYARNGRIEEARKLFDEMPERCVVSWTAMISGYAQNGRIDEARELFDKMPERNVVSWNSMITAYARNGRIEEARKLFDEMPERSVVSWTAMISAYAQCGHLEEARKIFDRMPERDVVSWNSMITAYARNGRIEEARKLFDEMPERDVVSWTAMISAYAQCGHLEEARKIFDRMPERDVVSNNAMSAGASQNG


Tests used:
9S-E2 = target: T1, 9S-E2; test: microscale thermophoresis; HRP: 50 mM Tris pH 8, 150 mM NaCl, 1 mM beta-mercaptoethanol, 50 ug/ml BSA, 3 ug/ml yeast RNA, 0.5% heparin; ITC and FP: Tris pH 8, 200 mM KCl, 5% glycerol; MST: 50 mM Tris pH 8, 200 mM NaCl, 1 mM DTT, BSA, heparin, 0.05% Tween 20; details: protein: recombinant; tags: N-terminal TRX-His; label: 5' Cy5
9P-S2 = target: T2, 9P-S2; test: high-throughput RNA pulldown on Ni-NTA beads; HRP: 50 mM Tris pH 8, 150 mM NaCl, 1 mM beta-mercaptoethanol, 50 ug/ml BSA, 3 ug/ml yeast RNA, 0.5% heparin; ITC and FP: Tris pH 8, 200 mM KCl, 5% glycerol; MST: 50 mM Tris pH 8, 200 mM NaCl, 1 mM DTT, BSA, heparin, 0.05% Tween 20; details: protein: recombinant; tags: N-terminal TRX-His; label: 5' Cy5
9S = target: T3, 9S; test: as above; details: protein: recombinant; tags: N-terminal His-eGFP; label: 5' Cy5
9S-S2 PPR = target: T4, 9S-S2 PPR; test: as above; details: protein: recombinant; tags: N-terminal TRX-His; label: 5' Cy5
[1] = target: T5, GFP-9S library array, motif 4 ND …; test: high-throughput RNA pulldown from lysate on Ni-NTA beads; HRP: 50 mM Tris pH 8, 150 mM NaCl, 1 mM beta-mercaptoethanol, 50 ug/ml BSA, 3 ug/ml yeast RNA, 0.5% heparin; ITC and FP: Tris pH 8, 200 mM KCl, 5% glycerol; MST: 50 mM Tris pH 8, 200 mM NaCl, 1 mM DTT, BSA, heparin, 0.05% Tween 20; details: tags: N-terminal His-eGFP

| Binder | Kd ([1]; label: 5' Cy5) [nM] | Kd ([1]; label: 5' IRDye 800CW) [nM] | further results |
| --- | --- | --- | --- |
| AUUACACGUGA (ssRNA) [Cy5-rpoA] | 99.7 |  | Kd (9S-E2): 6.8 nM; Kd (9P-S2): 68 nM; Kd (9S): 12 nM; Kd (9S-S2 PPR): 6.4 nM |
| AUUAUACGUGA (ssRNA) [IR-rpoA-U] |  | 193 |  |
| AUUAAACGUGA (ssRNA) [IR-rpoA-A] |  | 85.3 |  |
| AUUAGACGUGA (ssRNA) [Cy5-rpoA-G] | 68.8 |  |  |
